Columns and labels:
mouse insulin receptor [1] = biological target: T1, mouse insulin receptor (mouse, UniProt P15208 28-1372); assay: flow cytometry, biotinylated IgG on mINSR-CHOK1 cells
T1 construct: whole, on cells; also called muINSR; mINSR

human insulin receptor [2] = biological target: T2, human insulin receptor (human, UniProt P06213 28-1382); assay: FACS, serum-starved CHO-K1 cells expressing human INSR, no insulin
T2 construct: whole, on cells; Uncomplexed receptor on serum-starved cells (CHOK1 transfectants or IM-9); also called hINSR; INSR
Experimental: (§1) Twenty five microliter aliquots of cells were plated into 96 well plates, mixed with 25 ul of antibody or PPE and incubated on ice for 1 h.
(§2) The cells were then washed once with FACS buffer and the binding of the antibody was detected by the addition of 25 ul of an appropriate fluorochrome-conjugated secondary antibody. […] After a final 15 min incubation on ice the cells were washed and the pellets resuspended in FACS buffer. The cells were analyzed on a FACSCAN™ (Becton-Dickinson, Milipitas, Calif.) and the data analyzed in both FLOWJO™ (Treestar, Ashland, Oreg.) and Microsoft Excel™.

mouse insulin receptor [3] = biological target: T1, mouse insulin receptor; assay: FACS, serum-starved CHO-K1 cells expressing mouse INSR, no insulin
[4] = biological target: T3, mouse insulin receptor complexed with human insulin (mouse; human, UniProt P15208 28-1372; P01308 25-54; P01308 90-110); assay: FACS, CHO-K1 mouse INSR cells, signal with insulin divided by signal without insulin
T3 construct: whole, on cells;mature; also called muINSR/hINS complex

human insulin receptor [5] = biological target: T2, human insulin receptor; assay: cell-based or functional assay
[6] = biological target: T3, mouse insulin receptor complexed with …; assay: FACS, serum-starved CHO-K1 cells expressing mouse INSR, with insulin
Experimental: as §1, §2

human insulin receptor [7] = biological target: T2, human insulin receptor; assay: cell-based or functional assay; remark: listed apart in the source
mouse insulin receptor [8] = biological target: T1, mouse insulin receptor; assay: cell-based or functional assay
human insulin receptor [9] = biological target: T2, human insulin receptor; assay: cell-based or functional assay; remark: listed apart in the source
human insulin receptor [10] = biological target: T2, human insulin receptor; assay: KinExA antibody depletion by hINSR8-CHOK1 cells, without insulin
Experimental: (§3) Beads were rotated at room temperature for 6 hours then allowed to settle. Supernatant was replaced with PBS with 50 mg/mL BSA Fraction V (Sigma-Aldrich, St. Louis, Mo.) and rotated overnight at 4° C. […] On the KinExA 3000 the sample was injected at 0.25 mL/minute for 240 seconds, then rinsed for 60 seconds in running buffer (PBS with 0.05% sodium azide), then 240 seconds of the detection solution was injected, followed by a final 90 second wash at 1 mL/minute. The difference in voltage from an early initial time-point and a time point near the end of the run was measured and used to calculate affinities. The INSR concentration on the cells was estimated at 2.5×10⁵ receptors/cell. Affinity was determined using the KinExA software (Sāpidyne, Boise Id.) and EC50's were calculated by non-linear fit in Prism (GraphPad Software, La Jolla Calif.).
(§4) Samples were incubated overnight at 4° C. for 18 hours then centrifuged to pellet cells and supernatants were removed for testing on the KinExA. […] Detection solution used was R-PE-(Fab′)2 fragment goat anti-Human IgG(H+L) (Jackson Immuno Research, West Grove Pa.).

[11] = biological target: T4, human insulin receptor complexed with human insulin (human, UniProt P06213 28-1382; P01308 25-54; P01308 90-110); assay: KinExA antibody depletion by hINSR8-CHOK1 cells, with 175 nM insulin
T4 construct: whole, on cells;mature; also called hINSR-hINS complex; INS/INSR complex
Experimental: as §3, §4

mouse insulin receptor [12] = biological target: T1, mouse insulin receptor; assay: cell-based or functional assay; remark: listed apart in the source
human insulin receptor [13] = biological target: T2, human insulin receptor; assay: cell-based or functional assay; remark: listed apart in the source
[14] = biological target: T4, human insulin receptor complexed with …; assay: KinExA, affinity with insulin against affinity without insulin
Experimental: as §3, §4

[15] = biological target: T4, human insulin receptor complexed with …; assay: FACS, serum-starved CHO-K1 cells expressing human INSR, with insulin [cont'd]
Experimental: as §1, §2

[16] = biological target: T3, mouse insulin receptor complexed with …; assay: FACS, CHO-K1 mouse INSR cells, signal with insulin divided by signal without insulin [cont'd]
Experimental: as §1, §2

[17] = biological target: T4, human insulin receptor complexed with …; assay: FACS, CHO-K1 human INSR cells, signal with insulin divided by signal without insulin [cont'd]
Experimental: as §1, §2

human insulin receptor [18] = biological target: T2, human insulin receptor; assay: FACS, serum-starved CHO-K1 cells expressing human INSR, no insulin [cont'd]
Experimental: as §1, §2

rabbit insulin receptor [19] = biological target: T5, rabbit insulin receptor (rabbit, UniProt A0A5F9DAH8 25-1377); assay: FACS on monocytes of rabbit PBMC and on CHO cells expressing rabbit insulin receptor, without insulin
T5 construct: whole, on cells

[20] = biological target: T3, mouse insulin receptor complexed with …; assay: FACS, serum-starved CHO-K1 cells expressing mouse INSR, with insulin [cont'd]
Experimental: as §1, §2

mouse insulin receptor [21] = biological target: T1, mouse insulin receptor; assay: FACS, serum-starved CHO-K1 cells expressing mouse INSR, no insulin [cont'd]
Experimental: as §1, §2

rabbit insulin receptor [22] = biological target: T5, rabbit insulin receptor; assay: FACS on monocytes of rabbit PBMC, without insulin
Text: Cynomolgus monkey whole blood was obtained from California National Primate Research Center (Davis, Calif.) and rabbit whole blood was obtained from LifeSource Biomedical, LLC (Moffett Field, Calif.). Human PBMC were purified using Ficoll Hypaque from buffy coats obtained from the American Red Cross. Cynomolgus and Rabbit PBMC were than purified using Ficoll Hypaque gradients (Pharmacia). Purified PBMC were frozen and stored in liquid nitrogen prior to use in the assay. Human, cynomolgus and rabbit PBMC were thawed and washed with FACS Buffer (0.5% BSA and 0.1% NaN3 in PBS). Once the cells were prepared, they were used in the FACS staining assay at a final concentration of 2×10⁶ cells/ml.
After washing twice with FACS buffer, cells were stained with various markers to capture monocytes population. Human and cynomolgus cells were stained with CD45 and CD14. Rabbit cells were stained with CD11b and CD14. Antibodies were than incubated for 20 minutes and washed twice with FACS Buffer. Cells were than fixed with 2% paraformaldehyde and equal volume of FACS Buffer was added prior to cell analysis. The cells were analyzed on a FACScan™ (Becton-Dickinson, Franklin Lakes, N.J.) and the data was analyzed using both FloJo™ (Tristar, Paso Robles, Calif.) and GraphPad Prism 5 (GraphPad Software, La Jolla, Calif.).

B1: Ab004 (antibody, V domains shown)
VH: EVQLLESGGGLVQPGGSLRLSCAASGFTFRNFAMMWVRQAPGKGLEWVSGISWNSGSIGYADSVKGRFTISRDNSKNTLYLQMNSLRAEDTAVYYCARPSGAYPTPFDNWGQGTLVTVSS
VL: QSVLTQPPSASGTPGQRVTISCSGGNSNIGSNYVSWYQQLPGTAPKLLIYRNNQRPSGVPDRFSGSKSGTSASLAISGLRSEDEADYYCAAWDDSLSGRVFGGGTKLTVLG
notes: Sole member of Bin 7; also called XPA.015.066
B1: binds (mouse insulin receptor [1]).

B2: Ab061 (antibody, IgG2, V domains shown)
VH: QMQLVQSGAEVKKTGESLKISCQGYGYRFTDNWIGWVRQMPGRGLEWMGIIYPGDSETRYSPSFQGQVTISADKSISTAYLEWSSLKASDTAMYYCARHAPLAVAGMALGDWGQGTLVTVSS
VL: QTVVTQEPSFSVSPGGTVTLTCGLSSGSVSTGYSPGWYQQTPGQAPRTLVYNTNTRSSGVPDRFSGSILGNKAALTITGAQADDESDYYCALYMGSGTYVFGGGTKLTVL
notes: Negative modulator; also called XPA.015.209
With B2 the “FACS area under log transformed data MFI” value (human insulin receptor [2]) was 204, the “FACS area under log transformed data MFI” value (mouse insulin receptor [3]) was 462 and the “FACS area under log transformed data MFI ratio (+insulin/-insulin)” value [4] was 0.37. For the same binder, the “fold change in insulin EC50 (pAKT) relative to isotype control mAb, 10 ug/mL Ab061” value (human insulin receptor [5]) was 269 fold and the “FACS area under log transformed data MFI” value [6] was 170.

B3: Ab086 (antibody, IgG2, V domains shown)
VH: EVQLVETGGGVVRPGGSLRLSCAASGFTFGDYGMSWVRQAPGKGLEWVSGINWNGGSTGYADSVKGRFTISRDNAKNSLYLQMNSLRAEDTALYYCARDILGVEFDYWGQGTLVTVSS
VL: QSALTQPASVSGSLGQSITISCTGTSSDIGLYKFVSWYQQHPGKAPKLMIYDVSYRPSGVSNRFSGSSSGNTASLTISGLQAEDEADYYCNSYTSSSTLVVFGGGTKLTVL
notes: also called XPA.015.219
B3: binds (mouse insulin receptor [1]).

B4: Ab001 (antibody, V domains shown)
VH: EVQLLESGGGLVQPGGSLRLSCAASGFTFSSYEMNWVRQAPGKGLEWVSSISSSSSYIYYADSVKGRFTISRDNSKNTLYLQMNSLRAEDTAVYYCARVRWYKDSDAFDIWGQGTLVTVSS
VL: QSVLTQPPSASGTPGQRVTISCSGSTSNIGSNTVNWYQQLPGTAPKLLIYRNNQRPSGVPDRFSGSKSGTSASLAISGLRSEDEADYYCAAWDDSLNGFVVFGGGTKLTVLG
notes: Positive modulator, Bin 1; also called XPA.015.138
B4 was tested, and the “pAKT assay, fold-decrease in insulin EC50 relative to isotype control Ab” value (human insulin receptor [7]) was 9.7 fold, the “fold-change in insulin EC50 (pAkt) relative to isotype control, 2 ug/ml Ab001, mouse INSR CHO-K1 cells” value (mouse insulin receptor [8]) was 7 fold and the “fold-change in insulin EC50 (pAkt) relative to isotype control, 2 ug/ml Ab001, human INSR CHO-K1 cells” value (human insulin receptor [9]) was 12 fold. The Kd (human insulin receptor [10]) was 12 nM, the Kd [11] was 0.116 nM and the “positive modulation of insulin-dependent signaling, pAKT assay, CHOK1 mouse INSR” value (mouse insulin receptor [12]) was ~10 fold. For the same binder, the “positive modulation of insulin-dependent signaling, pAKT assay, CHOK1 human INSR” value (human insulin receptor [13]) was ~10 fold and the “Fold Improvement with Insulin” value [14] was 103 fold.

B5: Ab078 (antibody, IgG2, V domains shown)
VH: QVQLVQSGGGLVQPGGSLRLSCAASGFTFSSYSMNWVRQAPGKGLEWVSSISSSSSYIYYADSVKGRFTISRDNAKNSLYLQMNSLRAEDTAVYYCARDQGGELLGFTGYFDYWGQGTLVTVSS
VL: DIQLTQSPSSLSASVGDRVTITCRASQGISSALAWYQQKPGKAPKVLIYDASSLERGVPSRFSGSGTGTDFTLTISSLQPEDFASYYCHQFNSYPDTFGQGTRLEIK
notes: also called XPA.015.244
In the case of B5, the “FACS area under log transformed data MFI” value [15] is reported as 704, the “pAKT assay, fold-decrease in insulin EC50 relative to isotype control Ab” value (human insulin receptor [7]) is reported as 3.3 fold and the “FACS area under log transformed data MFI ratio (+insulin/-insulin)” value [16] is reported as 17.6. The “fold-change in insulin EC50 (pAkt) relative to isotype control, 20 ug/ml Ab078, human INSR CHO-K1 cells” value (human insulin receptor [9]) was 3 fold, the “FACS area under log transformed data MFI ratio (+insulin/-insulin)” value [17] was 66 and the “FACS area under log transformed data MFI” value (human insulin receptor [18]) was 11. The Kd [11] was 0.34 nM, the binding result (rabbit insulin receptor [19]) was “no binding” and the “FACS area under log transformed data MFI” value [20] was 217.

B6: Ab070 (antibody, IgG2, V domains shown)
VH: EVQLVQSGAEVKKPGESLKISCKGSGYSFTSYWIGWVRQMPGKGLEWMGIIYPGDSDTRYSPSFQGQVTISADKSISTSYLQWSSLRASDTAMYYCARLGSGWYGNDYWGQGTLVTVSS
VL: SSELTQDPAVSVALGQTVRITCQGDSLRSYYTSWYQQKPGQAPVLVIFGKNNRPSGIPDRFSGSSSGNTASLTITGAQAEDEADYYCNSRDSSGNYAVFGGGTQLTVL
notes: Negative modulator; also called XPA.015.226
With B6 the “FACS area under log transformed data MFI ratio (+insulin/-insulin)” value [16] was 0.66, the “FACS area under log transformed data MFI” value (mouse insulin receptor [21]) was 587 and the “FACS area under log transformed data MFI” value (human insulin receptor [18]) was 283. For the same binder, the “fold change in insulin EC50 (pAKT) relative to isotype control mAb, 20 ug/mL Ab070” value (human insulin receptor [5]) was 17 fold and the “FACS area under log transformed data MFI” value [20] was 389.

B7: Ab077 (antibody, IgG2, V domains shown)
VH: EVQLVESGGGVVQPGGSLRLSCAASGFTFSSYWMTWVRQAPGKGLEWVANINQDGSEKHYVDSVKGRFTISRDNAKNSLYLQMNSLRGEDTAVYYCARGRGAWAFDYWGQGTLVTVSS
VL: DIQMTQSPSSLSASVGDRVTITCRASQGISSWLAWYQQKPGKAPKLLIYAASSLQSGVPSRFSGSGSGTDFTLTISSLQPEDFATYYCQQANSFPITFGQGTRLEIK
notes: also called XPA.015.243
B7 was tested, and the “FACS area under log transformed data MFI” value [15] was 268, the binding result (rabbit insulin receptor [22]) was “no binding” and the “FACS area under log transformed data MFI ratio (+insulin/-insulin)” value [16] was 2.28. For the same binder, the “FACS area under log transformed data MFI” value (mouse insulin receptor [21]) was 45, the “fold-change in insulin EC50 (pAkt) relative to isotype control, 20 ug/ml Ab077, mouse INSR CHO-K1 cells” value (mouse insulin receptor [8]) was 8 fold and the “fold-change in insulin EC50 (pAkt) relative to isotype control, 10 ug/ml Ab077, human INSR CHO-K1 cells” value (human insulin receptor [9]) was 9 fold. The “FACS area under log transformed data MFI ratio (+insulin/-insulin)” value [17] was 2.12, the “FACS area under log transformed data MFI” value (human insulin receptor [18]) was 127 and the Kd [11] was 6.4 nM. The “FACS area under log transformed data MFI” value [20] was 103.

From patent US20160009800A1 (XOMA US, published 2016)
